{"source": "paper PMC9360328", "about": "“Tenuous Transcriptional Threshold of Human Sex Determination. I. SRY and Swyer Syndrome at the Edge of Ambiguity”", "binders": {"B1": {"name": "15-bp consensus SRY site, FRET-labeled (dsDNA)", "DNA 1": "TCGGTGATTGTTCAG", "DNA 2": "CTGAACAATCACCGA"}}, "test_in_all_cases": "FRET titration; 15 C, 25 nM DNA; FRET titration: 10 mM potassium phosphate, 10 mM Tris-HCl, 140 mM KCl, 1 mM EDTA, 1 mM DTT, pH 8.4, 15 C, 25 nM DNA; PGE: 10 nM DNA, 20 nM protein, 0.5x TBE, 4", "conditions_in_all_cases": "protein: recombinant; label: 5'-6-FAM (hexanyl linker) on upper strand; 5'-TAMRA (hexanyl linker) on lower strand; blunt", "key": {"SRY HMG box Y72C (Y127C)": {"target": "SRY HMG box Y72C (Y127C) (Homo sapiens, UniProt Q05066 56-141, Y127C)", "sequence (Q05066 56-141 Y127C)": "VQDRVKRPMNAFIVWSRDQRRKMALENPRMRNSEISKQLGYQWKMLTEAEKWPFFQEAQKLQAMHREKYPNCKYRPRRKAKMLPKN"}, "SRY HMG box Y72F (Y127F)": {"target": "SRY HMG box Y72F (Y127F) (Homo sapiens, UniProt Q05066 56-141, Y127F)", "sequence (Q05066 56-141 Y127F)": "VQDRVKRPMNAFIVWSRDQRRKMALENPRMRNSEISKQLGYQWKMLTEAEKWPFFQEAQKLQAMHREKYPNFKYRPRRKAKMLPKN"}, "SRY HMG box Y72H (Y127H)": {"target": "SRY HMG box Y72H (Y127H) (Homo sapiens, UniProt Q05066 56-141, Y127H)", "sequence (Q05066 56-141 Y127H)": "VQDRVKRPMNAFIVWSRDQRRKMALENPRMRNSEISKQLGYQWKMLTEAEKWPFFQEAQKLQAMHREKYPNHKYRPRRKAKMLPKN"}}}
{"binder": "B1", "values": [{"measurement": "Kd", "setting": "SRY HMG box Y72C (Y127C)", "value": "0.021 ± 0.005", "unit": "µM"}, {"measurement": "Kd", "setting": "SRY HMG box Y72F (Y127F)", "value": "0.012 ± 0.003", "unit": "µM"}, {"measurement": "Kd", "setting": "SRY HMG box Y72H (Y127H)", "value": "0.019 ± 0.004", "unit": "µM"}]}
